The target of assay [1] is T1, human GST-CEACAM1 (human, UniProt P13688 35-141, limits assumed).
T1 construct: printed both as GST-CEACAM1 and CEACAM1-GST; also called human CEACAM1-GST protein; hCEACAM1-GST; not shown: GST tag
T1 sequence: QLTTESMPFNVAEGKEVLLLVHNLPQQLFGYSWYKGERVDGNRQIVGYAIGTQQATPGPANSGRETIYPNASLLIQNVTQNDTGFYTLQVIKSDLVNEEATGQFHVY
The assay can be described thus: competition ELISA vs murine parent antibody. Here is the method: The binding of the purified chimeric antibody to human CEACAM1 was assessed in a competition ELISA assay. Nunc Immuno MaxiSorp 96 well flat bottom microtitre plates were pre-coated with 1 μg/ml human GST-CEACAM1 in 1×PBS, overnight at 4° C. The following day the plates were blocked for 1 hour at room temperature with 2% BSA/PBS before washing 2× with PBS/0.05% Tween 20 pH 7.4.
The binding of the purified antibodies to human CEACAM1 were assessed in a competition ELISA assay as described above. The ability of each variant to compete against the murine parental antibody for binding to the GST-CEACAM1 was compared to that of the chimeric antibody (VH0/Vκ0), which was included on each plate.

Assay [2] deals with T2, CEACAM1-HIS (Sino Biologics Inc.) (Homo sapiens (Human), UniProt P13688 35-428).
T2 construct: bought; not shown: His tag
T2 sequence: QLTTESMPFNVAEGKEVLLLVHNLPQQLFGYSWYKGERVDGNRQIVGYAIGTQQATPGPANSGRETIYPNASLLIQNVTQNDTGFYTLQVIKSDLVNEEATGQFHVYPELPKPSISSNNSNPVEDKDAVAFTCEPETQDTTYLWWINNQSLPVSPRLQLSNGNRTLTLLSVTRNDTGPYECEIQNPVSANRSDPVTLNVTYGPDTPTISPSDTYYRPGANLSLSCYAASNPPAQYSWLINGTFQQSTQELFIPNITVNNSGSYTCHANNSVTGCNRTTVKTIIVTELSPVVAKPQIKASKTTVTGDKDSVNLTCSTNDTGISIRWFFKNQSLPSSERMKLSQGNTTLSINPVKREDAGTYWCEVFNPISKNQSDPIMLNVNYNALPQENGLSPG
The assay can be described thus: SPR multi-cycle, IgG on Protein A. Here is the method:
As an alternative approach to assess the binding of the antibody combinations and the control antibodies to CEACAM1, a kinetic analysis was performed on a Biacore T200 running Biacore T200 Evaluation Software V2.0.1. All experiments were run at 25° C. with HBS-P+ running buffer (pH 7.4).
For multi-cycle kinetic analysis purified antibody was immobilized at a protein concentration of 1 μg/mL in HBS-P+. At the start of each cycle, antibody was captured on Protein A to give an RU of ˜100 and the surface allowed to stabilize. Kinetic data was obtained at a flow rate of 35 μl/min to minimize any potential mass transfer effects. Multiple repeats of the blank (no CEACAM1) and a repeat of a single concentration of the analyte were programmed into the kinetic run in order to check the stability of both the surface and analyte over the kinetic cycles. For kinetic analysis, a 2-fold dilution series was selected from 100 to 1.5625 nM CEACAM1. The association phase of CEACAM1 was monitored initially for 180 seconds. In the subsequent experiment a longer association time (275 seconds) was used in order to better reach steady state. The dissociation phase was measured for 250 seconds. Regeneration of the Protein A surface was conducted using 2 injections of 10 mM glycine-HCL pH 1.5 at the end of each cycle.
The signal from the reference channel Fc1 was subtracted from that of Fc2, Fc3 and Fc4 to correct for differences in non-specific binding to a reference surface, a global Rmax parameter was used in the 1-to-1 binding model. The relative KD compared to the chimeric parental antibody was calculated by dividing the KD of the Composite Human Antibody™ variants by that of the chimeric parental antibody on the same chip.

Assay [3] deals with T3, CEACAM6 (Sino Biological) (human, UniProt P40199 35-320).
T3 construct: also called hCEACAM6
T3 sequence (looked up): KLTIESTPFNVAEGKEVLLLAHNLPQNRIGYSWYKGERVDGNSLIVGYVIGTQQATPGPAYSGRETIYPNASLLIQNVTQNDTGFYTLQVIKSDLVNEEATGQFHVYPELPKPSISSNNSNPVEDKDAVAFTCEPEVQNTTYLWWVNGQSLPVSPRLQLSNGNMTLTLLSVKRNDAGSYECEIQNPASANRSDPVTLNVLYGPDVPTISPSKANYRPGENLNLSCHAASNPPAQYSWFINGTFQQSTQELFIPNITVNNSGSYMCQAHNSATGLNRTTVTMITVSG
The assay can be described thus: binding ELISA on plate-coated CEACAM (0.5 µg/mL); antibody at 1.67, 0.062 and 0.0069 µg/mL; signal as % of parent IgG on CEACAM1 at 1.67 µg/mL on the same plate. For orientation: ELISA stands for enzyme-linked immunosorbent assay.

Assay [4] has as its target T4, CEACAM6 on transfected HeLa cells (UniProt P40199 35-320, limits assumed).
T4 construct: whole, on cells; also called C6
T4 sequence (looked up): T3 sequence (looked up)
The assay can be described thus: flow cytometry, transfected HeLa. An outline of the steps:
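HeLa cells transfected separately with CEACAM1, CEACAM5 or CEACAM6 were stained with test antibodies, then fluorochrome-conjugated anti-isotype (human IgG4 or mouse IgG1) secondary plus DAPI viability dye. Binding read by flow cytometry.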
(A flow cytometer gives signals particle by particle.)

The values below come from patent publication US20250388666A1 (BRIGHAM AND WOMEN S HOSPITAL, published 2025).

Where “and” joins values, the source holds several entries; their conditions need not be identical. Equal values may be shown once.

B1: chimeric parental antibody VH0/Vκ0 (antibody, IgG4, V domains shown)
VH: EVQLVESGGGFVKPGGSLKLSCAASGFSFSDYYLYWVRQTPEKRLEWVATISVGGGNTSYPDSVKGRFTISRDNAKNNLYLQMSSLKSEDTAMYYCTRGLYYGPAWFAYWGQGTLVTVSA
VL: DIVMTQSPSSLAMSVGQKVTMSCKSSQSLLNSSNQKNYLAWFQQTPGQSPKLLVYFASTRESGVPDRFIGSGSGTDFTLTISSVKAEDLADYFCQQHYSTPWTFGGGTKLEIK
notes: IgG4 (S241P), kappa; also called Chimera; chimeric antibody
A word on the Kd: it is a measure of binding affinity in units of concentration. In general, koff refers to the rate constant with which the complex falls apart. For orientation: kon means a measure of how fast the partners come together. In the case of B1, in assay [1], the “average relative IC50 (normalized to chimeric antibody)” value amounted to 1 ratio. Further, in assay [2], the Kd was 27.2 nM and 22.3 nM and 19.5 nM; the koff is 0.0053 s⁻¹ and 0.00571 s⁻¹ and 0.00531 s⁻¹; the kon is 195000 M⁻¹ s⁻¹ and 256000 M⁻¹ s⁻¹ and 272000 M⁻¹ s⁻¹; the “relative KD to chimeric parental antibody” value came out at 1 ratio.

B2: VH2 N56Q/Vκ4 S27(f)A IgG (antibody, V domains shown)
VH: EVQLLESGGGLVQPGGSLRLSCAASGFSFSDYYLYWVRQAPGKGLEWVATISVGGGQTSYADSVKGRFTISRDNSKNTLYLQMNSLRAEDTAMYYCTRGLYYGPAWFAYWGQGTLVTVSS
VL: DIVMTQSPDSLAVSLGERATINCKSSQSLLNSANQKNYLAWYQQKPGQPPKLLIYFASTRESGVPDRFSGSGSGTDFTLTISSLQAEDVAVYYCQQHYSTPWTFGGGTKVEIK
notes: IgG4 S241P, kappa; also called Parent; Parent IgG
With B2, in assay [3], the binding result is “no binding (tested: 1.67 µg/mL)”. The relative fluorescence intensity in assay [4] was 1.31.
